Source: patent US20200317776A1 (published 2020)

How the values were obtained:
[1] = biological target: T1, human TREM2 Fc fusion (entire TREM2 ECD; only one Fc arm fused to TREM2) (human, UniProt Q9NZC2 19-174); test: BLI, IgG, avid
T1 construct: also called huTREM2-Fc; recombinant hTREM2
T1 sequence: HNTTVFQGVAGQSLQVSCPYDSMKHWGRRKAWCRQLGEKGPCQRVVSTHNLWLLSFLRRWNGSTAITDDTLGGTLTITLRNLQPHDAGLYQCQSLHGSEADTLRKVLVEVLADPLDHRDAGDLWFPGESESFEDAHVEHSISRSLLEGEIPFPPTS
Procedure: Briefly, IgGs were loaded on-line onto AHQ sensors, Sensors were equilibrated off-line in assay buffer for 30 minutes and then monitored on-line for 60 seconds for baseline establishment. For avid binding measurement, sensors with loaded IgGs were exposed to 100 nM antigen (human or cynomolgus monkey TREM2 Fe fusion using the entire TREM2 ECD; only one Fc arm was fused to TREM2) for 3 minutes, afterwards they were transferred to assay buffer for 3 minutes for off-rate measurement. Monovalent binding measurements were obtained by loading human TREM2 Fc fusion antigens to AHQ sensor and followed by exposure to 100 nM TREM2 antibody Fab. Kinetics data were fit using a 1:1 binding model in the data analysis software provided by ForteBio. Assay was run at room temperature (25° C.).

[2] = biological target: T2, human TREM2 expressed on cells (human, UniProt Q9NZC2 19-230); test: FACS, human DCs
T2 construct: BW5147.G.1.4 cells stably expressing human TREM2 together with Dap12, or endogenous TREM2 of primary human myeloid cells; also called huT2 BW; hTREM2 expressing cell line
T2 sequence: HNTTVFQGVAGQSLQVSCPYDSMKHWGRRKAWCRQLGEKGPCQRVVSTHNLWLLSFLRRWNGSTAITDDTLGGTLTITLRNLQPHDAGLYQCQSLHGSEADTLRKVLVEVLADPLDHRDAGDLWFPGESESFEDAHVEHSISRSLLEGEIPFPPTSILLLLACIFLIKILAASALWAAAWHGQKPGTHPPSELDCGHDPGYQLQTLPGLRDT
From the text: To examine cell binding of affinity matured anti-TREM2 antibodies, both primary human monocyte derived dendritic cells and recombinant, human TREM2 expressing cells were utilized. For the latter, BW5147.G.1.4 (ATCC® TIB48™) and HEK293T cells stably expressing human TREM2 together with Dap12 using viral infection were established. For primary human monocyte derived dendritic cells, human monocytes were isolated from whole blood using RosetteSep Human monocyte enrichment cocktail (Stemcell technologies) and Ficoll centrifugation per manufacturer protocols. After lysing red blood cells with ACK lysing buffer, monocytes were resuspended in complete media (RPMI, 10% FBS, Pen/Strep, L-glutamine, HEPES, non-essential amino acid, Sodium pyruvate) with 100 ng/ml human GM-CSF (hu-GMCSF) and, human IL-4 (hu-IL-4) to differentiate dendritic cells for 6 days.
Cells were harvested by trypsinization (Hek293T) or scraping (BW and dendritic cells), washed in PBS, counted and plated on 96-well U bottom plates at […] cells/well. The plates were spun at 1,400 rpm for 3 minutes and primary TREM2 or control antibodies were added in FACS buffer (PBS+2% FBS) and incubated on ice for one hour. Cells were subsequently centrifuged as before and washed thrice with FACS buffer. Cells were then incubated with anti-human PE conjugated secondary antibody (BD Biosciences) in FACS buffer for 30 minutes on ice. Cells were again washed thrice with FACS buffer and analyzed on a BD FACS Canto or an Intellicyt Flow Cytometer. Binding was measured as mean fluorescence intensity in the APC channel.

[3] = biological target: T1, human TREM2 Fc fusion (entire TREM2 …); test: BLI, Fab, monovalent
[4] = biological target: T3, cynomolgus monkey TREM2 Fc fusion (entire TREM2 ECD; only one Fc arm fused to TREM2) (cynomolgus monkey, UniProt Q9NZC2 19-174 (human entry)); test: BLI, Fab, monovalent
T3 construct: also called cyno TREM2-Fc
T3 chain: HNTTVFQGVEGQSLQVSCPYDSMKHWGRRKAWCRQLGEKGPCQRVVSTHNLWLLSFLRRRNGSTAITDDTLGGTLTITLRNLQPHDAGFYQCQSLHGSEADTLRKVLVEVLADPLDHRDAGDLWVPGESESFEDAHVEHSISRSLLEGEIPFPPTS

[5] = biological target: T2, human TREM2 expressed on cells; test: FACS, hTREM2 BW cells
Summary of the method: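 Cells were BW5147.G.1.4 stably expressing human TREM2 with Dap12, or human monocyte-derived dendritic cells differentiated 6 days with GM-CSF and IL-4. Antibodies bound 1 h on ice in PBS+2% FBS, then PE anti-human secondary 30 min on ice; flow cytometry read-out as mean fluorescence intensity.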

[6] = biological target: T2, human TREM2 expressed on cells; test: cell-based or functional assay
[7] = biological target: human TREM2/DAP12 fusion protein (human, UniProt O43914 41-113, limits assumed); test: cell-based or functional assay
Chain of human TREM2/DAP12 fusion protein (O43914 other isoform, or with tags, fused parts or gaps limits assumed): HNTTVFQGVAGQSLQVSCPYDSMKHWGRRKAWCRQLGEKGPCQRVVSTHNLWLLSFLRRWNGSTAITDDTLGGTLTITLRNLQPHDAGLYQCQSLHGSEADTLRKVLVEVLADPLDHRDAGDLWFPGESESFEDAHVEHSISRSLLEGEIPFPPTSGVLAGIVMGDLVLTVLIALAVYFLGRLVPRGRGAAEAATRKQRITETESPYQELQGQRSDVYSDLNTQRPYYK

| Kd [1] [nM] | MFI [2] [MFI] | Kd [3] [nM] | Kd [4] [nM] | Kd [5] [nM] | Luciferase activation soluble 10 nM IgG, FOC [7] [FOC] | Luciferase activation plate bound 33 nM IgG, FOC [7] [FOC] | Binder | Survival huDCs plate bound IgG, AUC [6] [AUC] |
| --- | --- | --- | --- | --- | --- | --- | --- | --- |
| 0.3 | 310 | 4.01 | 3.1 | 1.2 | 2.78 | – | AL2p-8 (antibody, V domains shown, Fab and IgG formats under one id) VH: QVQLVQSGAEVKKPGSSVKVSCKASGYAFSLSWMNWVRQAPGQGLEWMGRIYPGDGDTNYARKFQGRVTITADESTSTAYMELSSLRSEDTAVYYCARLLRNQPGSSYAMDYWGQGTLVTVSS VL: GVVMTQTPLSLSVTPGQPASISCRSSQSLIHSNGYTYLHWYLQKPGQSPQLLIYKVSNRRSGVPDRFSGSGSGTDFTLKISRVEAEDVGVYYCSQSTRVPYTFGQGTKLEIK | 1.09e+06 |
| 0.495 | 240 | 12.1 | 7.38 | 1.7 | 2.64 | 22.7 | AL2p-36 (antibody, V domains shown, Fab and IgG formats under one id) VH: QVQLVQSGAEVKKPGASVKVSCKASGYAFSSSWMNWVRQAPGQRLEWIGRIYPGDGDTNYARKFQGRVTITADTSASTAYMELSSLRSEDTAVYYCARLLRNQPGASYAMDYWGQGTLVTVSS VL: DVVMTQSPDSLAVSLGERATINCRSSQSLVHSNGYTYLHWYQQKPGQSPKLLIYKVSNRFSGVPDRFSGSGSGTDFTLTISSLQAEDVAVYYCSQSTRVPYTFGGGTKVEIK | 1.14e+06 |
| 0.201 | 296 | 3.15 | 2.69 | 1.1 | 2.59 | 25.9 | AL2p-26 (antibody, V domains shown, Fab and IgG formats under one id) VH: QVQLVQSGAEVKKPGSSVKVSCKASGYAFSSHWMNWVRQAPGQGLEWMGRIYPGGGDTNYAQKRQGRVTITADESTSTAYMELSSLRSEDTAVYYCARLLRNQPGESYAMDYWGQGTLVTVSS VL: GVVMTQTPLSLSVTPGQPASISCRSSQSLIHSNGYTYLHWYLQKPGQSPQLLIYKVSNRRSGVPDRFSGSGSGTDFTLKISRVEAEDVGVYYCSQSTRVPYTFGQGTKLEIK | 1.11e+06 |
| 0.334 | – | 4.35 | 4.16 | 1.2 | 2.53 | 29.8 | AL2p-23 (antibody, V domains shown, Fab and IgG formats under one id) VH: QVQLVQSGAEVKKPGSSVKVSCKASGYAFSSHWMNWVRQAPGQGLEWMGRIYPGDGQTNYAQKRQGRVTITADESTSTAYMELSSLRSEDTAVYYCARLLRNQPGESYAMDYWGQGTLVTVSS VL: GVVMTQTPLSLSVTPGQPASISCRTSQSLVHSNGYTYLHWYLQKPGQSPQLLIYKVSNRVSGVPDRFSGSGSGTDFTLKISRVEAEDVGVYYCSQSTRVPYTFGQGTKLEIK | 1.11e+06 |
| 0.349 | 322 | 6.44 | 5.63 | 1.1 | 2.62 | 15.2 | AL2p-9 (antibody, V domains shown, Fab and IgG formats under one id) VH: QVQLVQSGAEVKKPGSSVKVSCKASGYAFSRSWMNWVRQAPGQGLEWMGRIYPGDGDTNYAQKFQGRVTITADESTSTAYMELSSLRSEDTAVYYCARLLRNQPGASYAMDYWGQGTLVTVSS VL: GVVMTQTPLSLSVTPGQPASISCRTSQSLVHSNGYTYLHWYLQKPGQSPQLLIYKVSNRVSGVPDRFSGSGSGTDFTLKISRVEAEDVGVYYCSQSTRVPYTFGQGTKLEIK | 976000 |
| 0.222 | 327 | 1.83 | 1.36 | 1.2 | 2.6 | 16.9 | AL2p-16 (antibody, V domains shown, Fab and IgG formats under one id) VH: QVQLVQSGAEVKKPGSSVKVSCKASGYAFSSHWMNWVRQAPGQGLEWMGRIYPGDGDTNYAQKFRGRVTITADESTSTAYMELSSLRSEDTAVYYCARLLRNQPGASYAMDYWGQGTLVTVSS VL: GVVMTQTPLSLSVTPGQPASISCRTSQSLVHSNGYTYLHWYLQKPGQSPQLLIYKVSNRVSGVPDRFSGSGSGTDFTLKISRVEAEDVGVYYCSQSTRVPYTFGQGTKLEIK | 880000 |
| 1.85 | 130 | 28.4 | 24.6 | 3.6 | 2.05 | 5.15 | AL2p-35 (antibody, V domains shown, Fab and IgG formats under one id) VH: QVQLVQSGAEVKKPGASVKVSCKASGYAFWSSWMNWVRQAPGQRLEWIGRIYPGDGDTNYAQKFQGRVTITADTSASTAYMELSSLRSEDTAVYYCARLLRNQPGESYAHDYWGQGTLVTVSS VL: DVVMTQSPDSLAVSLGERATINCRSSQSLVHSNGYTYLHWYQQKPGQSPKLLIYKVSNRFSGVPDRFSGSGSGTDFTLTISSLQAEDVAVYYCSQSTRVPYTFGGGTKVEIK | 453000 |
| 0.403 | – | 6.38 | 6.47 | 1.3 | 2.17 | 26.6 | AL2p-29 (antibody, V domains shown, Fab and IgG formats under one id) VH: QVQLVQSGAEVKKPGSSVKVSCKASGYAFSSQWMNWVRQAPGQGLEWMGRIYPGDGDTNYAQKFQGRVTITADESTSTAYMELSSLRSEDTAVYYCARLLRNQPGESYAMDYWGQGTLVTVSS VL: GVVMTQTPLSLSVTPGQPASISCRSSRSLVHSNGYTYLHWYLQKPGQSPQLLIYKVSNRFSGVPDRFSGSGSGTDFTLKISRVEAEDVGVYYCSQSTRVPYTFGQGTKLEIK | 1.11e+06 |
| 0.538 | 262 | 8.85 | 8.76 | 2.2 | 1.8 | 7.54 | AL2p-15 (antibody, V domains shown, Fab and IgG formats under one id) VH: QVQLVQSGAEVKKPGSSVKVSCKASGYAFSSHWMNWVRQAPGQGLEWMGRIYPGDGDTNYAQKFQGRVTITADESTSTAYMELSSLRSEDTAVYYCARLLRNQPGESYAMDYWGQGTLVTVSS VL: GVVMTQTPLSLSVTPGQPASISCRSSSSLVHSNGYTYLHWYLQKPGQSPQLLIYKVSNRKSGVPDRFSGSGSGTDFTLKISRVEAEDVGVYYCSQSTRVPYTFGQGTKLEIK | 488000 |
